Laboratory results: US20220324909A1 (COHBAR, published 2022)
Non-standard residues stand in square brackets, D forms with d. Primed or numbered codes have the meaning given here. No end group written: not given here. PEG12″ = PEG12 group on the N-terminal Lys

T1: Apelin Receptor (APJ) stably overexpressed in CHO-K1 AGTRL1 Gi cells (human, UniProt P35414 1-380)
T1 sequence (looked up): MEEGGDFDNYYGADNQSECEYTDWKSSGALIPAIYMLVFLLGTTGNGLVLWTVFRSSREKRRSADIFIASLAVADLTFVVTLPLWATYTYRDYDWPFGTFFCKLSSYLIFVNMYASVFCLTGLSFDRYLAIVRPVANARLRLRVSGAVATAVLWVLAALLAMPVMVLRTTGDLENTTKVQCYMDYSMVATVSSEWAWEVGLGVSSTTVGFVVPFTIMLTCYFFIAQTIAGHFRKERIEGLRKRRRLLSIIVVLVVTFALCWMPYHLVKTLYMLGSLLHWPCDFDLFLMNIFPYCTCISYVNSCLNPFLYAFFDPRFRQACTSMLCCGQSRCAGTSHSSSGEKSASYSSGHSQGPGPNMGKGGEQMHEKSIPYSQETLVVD

B1: SEQ ID NO 15 (peptide)
peptide: RRMMGMVFQSLCG[dA]
B2: SEQ ID NO 36 (peptide)
peptide: KRRMMGMVFQSLCGA
modifications: (PEG12) on the N-terminal K (position 1); (dA) D-alanine at position 15
B3: SEQ ID NO 37 (peptide)
peptide: KRRLLGLVFQSLCGA
modifications: (PEG12) on the N-terminal K (position 1); (dA) D-alanine at position 15
B4: SEQ ID NO 42 (peptide)
peptide: [PEG12″]KRRIIGIVFQCLCG[dA]
modifications: cysteine pairing not given here
B5: SEQ ID NO 7 (peptide)
peptide: MRRMMGMVFQCLCGL
B6: SEQ ID NO 10 (peptide)
peptide: RRMMGMVYQCLCG[dA]
modifications: cysteine pairing not given here
B7: SEQ ID NO 46 (peptide)
peptide: MMGMVFQ
B8: SEQ ID NO 47 (peptide)
peptide: MMGMVFQS
B9: SEQ ID NO 48 (peptide)
peptide: MMGMVFQSL
B10: SEQ ID NO 49 (peptide)
peptide: MMGMVFQSLCG[dA]
B11: SEQ ID NO 11 (peptide)
peptide: RRMMGMVAQCLCG[dA]
modifications: cysteine pairing not given here
B12: SEQ ID NO 12 (peptide)
peptide: RRMMGMVEQCLCG[dA]
modifications: cysteine pairing not given here
B13: SEQ ID NO 13 (peptide)
peptide: RRMMGMVFQELCG[dA]
B14: SEQ ID NO 14 (peptide)
peptide: RRMMGMVFQCLEG[dA]
B15: SEQ ID NO 43 (peptide)
peptide: RRIIGIVFQSLCG[dA]

The binders below were run against ProLink tagged human APJ (Apelin Receptor) in CHO-K1 AGTRL1 β-Arrestin cells (human, UniProt P35414 1-380) (assay: cell-based or functional assay).

Binder	β-Arrestin recruitment, Percent of Apelin-13 Control Activity (10 µM peptide)
B1	40 % of Apelin-13 control
B2	63 % of Apelin-13 control
B3	12 % of Apelin-13 control
B4	8 % of Apelin-13 control
B5	91 % of Apelin-13 control
B6	3 % of Apelin-13 control
B7	0 % of Apelin-13 control
B8	1 % of Apelin-13 control
B9	1 % of Apelin-13 control
B10	1 % of Apelin-13 control
B11	0 % of Apelin-13 control
B12	-1 % of Apelin-13 control
B13	1 % of Apelin-13 control
B14	0 % of Apelin-13 control

Each binder was assayed against T1, Apelin Receptor (APJ) stably … (assay: cell-based or functional assay).

Binder	cAMP levels, Percent of Pyr-Apelin-13 Control Activity (10 µM peptide, 10 µM forskolin)
B1	105 % of Pyr-Apelin-13 control
B2	101 % of Pyr-Apelin-13 control
B3	53 % of Pyr-Apelin-13 control
B4	33 % of Pyr-Apelin-13 control
B5	109 % of Pyr-Apelin-13 control
B6	70 % of Pyr-Apelin-13 control
B7	11 % of Pyr-Apelin-13 control
B8	-6 % of Pyr-Apelin-13 control
B9	15 % of Pyr-Apelin-13 control
B10	14 % of Pyr-Apelin-13 control
B11	49 % of Pyr-Apelin-13 control
B12	24 % of Pyr-Apelin-13 control
B13	49 % of Pyr-Apelin-13 control
B14	39 % of Pyr-Apelin-13 control

Target: T1, Apelin Receptor (APJ) stably …
Experiment: cell-based or functional assay
Remark: another data set of the same source

Binder	IC50, inhibition of forskolin-stimulated cAMP accumulation
B1	4.49 µM
B2	1.6 µM
B3	2.5 µM
B4	4.38 µM
B15	2.07 µM
B5	1.24 µM
